# Assays:
# human HSCs [1] = assay: Fluorescence microscopy without fixation: effect of peptides and monensin on FITC-C1-3 scAb binding; format: cell-based; details: monensin 2.5 and 15 μM; for effect on FITC-C1-3 association/binding to HSCs: added with 10 μg FITC-C1-3 scAb, peptides 0.25-25 nmoles, FIG. 13
# Experimental: Effect of synaptophysin peptides and monensin on FITC-C1-3 scAb binding to human HSCs. Human HSCs seeded into 24 well plates were washed and incubated in 500 μl Hepes/HBSS per well for 1 hour containing either: 10 μg C1-3 scAb; 10 μg FITC-C1-3 scAb; 10 μg FITC-C1-3 scAb and 0.25 nmoles of the target peptide; 10 μg FITC-C1-3 scAb and 2.5 nmoles of the target peptide; 10 μg FITC-C1-3 scAb and 25 nmoles of the target peptide; 10 μg FITC-C1-3 scAb and 25 nmoles of the target peptide P1; 10 μg FITC-C1-3 scAb and 2.5 μM monensin; 10 μg FITC-C1-3 scAb and 15 μM monensin; 10 μg FITC-3A8 scAb (scAb raised to microcystin and not expected to bind to HSCs). Cells incubated with monensin were preincubated for 10 minutes. Just prior to addition of scAb, the medium was changed and cells were re-dosed with monensin. […] Bar=μm. Monen=monensin; P1=the […] peptide (SEQ ID NO 27); P2=the target peptide.
# HSCs seeded into 24 well plates were washed with Hepes/HBSS and then incubated at 37° C. in 500 μl/well Hepes/HBSS containing 10 μg scAb with or without additional compounds. After 1 hour, the cells were washed 3 times with 500 μl Hepes/HBSS. Cells were analysed using an Axiovert 100 microscope (Zeiss, Germany) using filter set #9 (BP 450-490 nm; LP 515 nm).
# HSCs = assay: Effect of scAb incubation on HSC viability (attachment, protein assay); format: cell-based, human; details: 3 hours incubation, 5 μg scAb or indicated chemical, FIG. 12
# Experimental: Effect of scAb incubation on HSC viability. HSCs seeded into 24 well plates were incubated in 0.3 mls culture medium containing 5 μg scAb or the indicated-chemical. Cells were incubated for 3 hours prior to removal of medium and washing with 1×PBS. Attachment (as a measure of viability) was determined by a direct protein assay in the culture wells.
# [2] = system: human hepatic stellate cells; assay: Fluorescence microscopy of FITC-labelled scAb with cells; format: cell-based; details: 10 μg scAb, 1 h, room temperature
# Experimental: (§1) FITC-C1-3 scAb was tested for its ability to interact with hepatic stellate cells in culture by fluorescence microscopy. Human hepatic stellate cells were seeded (1×10^3 cells per chamber) on chamber slides (Nunclon, Naperville) in complete medium prior to experimentation. Cells were washed twice in phosphate buffered saline (PBS) and incubated in 500 μl Hepes/HBSS buffer (0.14M NaCl, 5.4 mM KCl, 0.34 mM Na2HPO4, 0.94 mm KH2PO4, 5.6 mM glucose, 1 mM CaCl2, 6 mM HEPES, 4 mM NaHCO3 pH7.4) containing 10 μg scAb or FITC-C1-3 scAb for 1 h at room temperature in the dark. The cells were then washed in PBS and mounted with Vectashield mounting medium (Vector laboratories, Burlingame, Calif.) containing 4′,6′ diamindino-2 phenylindole (DAPI) to stain cell nuclei and coverslips applied. Florescence microscopy was carried out using a Zeiss Axeola II microscope with a Photometrics Sensis camera, and data captured using the Smart Capture programme. Human hepatocytes (UK Human Tissue Bank) were originally cultured in a collagen-coated 24 well plate (1×10^5/well) and maintained in William's medium E supplemented with 80 units/ml penicillin and 80 μg/ml streptomycin.
# human hepatocytes = assay: as above; format: cell-based
# Experimental: as §1
# HepG2 cells = assay: Fluorescence binding to cells; format: cell-based
# [3] = system: hepatic stellate cell and hepatocytes co-cultured; format: cell-based, human
# Experimental: For co-culture experiments, hepatic stellate cells were seeded into hepatocytes cultures (1×10^3 cells per well) and cultured for 24 h prior to experimentation. The C1-3 or FITC-C1-3 scAb was incubated as outlined for pure hepatic stellate cell cultures except that after 1 hour incubation and washing, the cells were harvested by trypsinisation and centrifugation at 1000 rpm for 5 min. The cell pellet was then resuspended in 0.4% formaldehyde/10^6 cells, applied onto glass slides by cytocentrifugation and mounted with Vectashield containing DAPI. Slides were viewed by fluorescence microscopy as before.
# [4] = biological target: T1, synaptophysin in human HSCs (Homo sapiens, UniProt P08247); assay: Western analysis of cell extracts probed with C1-3 scAb; format: binding; details: human HSC extract, FIG. 8
# T1 construct: endogenous in cells; host or cells: human hepatic stellate cells (patient-derived, AH4)
# Experimental: (§2) Western blot showing the binding of C1-3 scAb to the target peptide. Cell extracts (5 μg/lane) were subjected to Western blotting and membranes probed with C1-3 scAb followed by incubation with HRP conjugated anti-human Cκ light chain antibody and detection using ECL reagent. rHSCs—rat hepatic stellate cells; hHSCs—human hepatic stellate cells (AH4=anonymous patient code); rHCs—rat hepatocytes; B13—rat pancreatic stem cell; B13-H—rat pancreatic stem cell after trans-differentiation into an hepatocyte.
# (§3) Western blotting was performed essentially as described in Wright M. C. et al. Mol Pharmacol 1996; 50:856-63.
# [5] = biological target: T2, synaptophysin in rat HSCs (Rattus norvegicus, UniProt P07825); assay: as above; format: binding; details: rat HSC extract, FIG. 8
# T2 construct: endogenous in cells; host or cells: rat hepatic stellate cells
# Experimental: as §2, §3
# human HSCs [6] = assay: Uptake of scAb and conjugates by human HSCs in culture (Western blot of medium); format: cell-based; details: 5 μg scAb in 0.3 mls medium, FIG. 11
# Experimental: Uptake of C1-3 scAb and C1-3-conjugates by human HSCs in culture. HSCs seeded into 24 well plates were incubated in 0.3 mls culture medium containing 5 μg scAb. Samples of medium were taken at the indicated times and subjected to Western blotting to detect scAb using HRP-conjugated anti-human Cκ light chain antibody (UPPER PANEL) and serum albumin (LOWER PANEL) as a loading control. Results typical of 4 separate experiments.
# COS-7 cells = assay: Fluorescence binding to cells; format: cell-based
# [7] = biological target: T3, peptide YPFRLHQVYFDAPSC (SEQ ID NO 9) (Homo sapiens, UniProt P08247); assay: Expressed purified anti-peptide scAb ELISA; format: binding
# T3 construct: host or cells: chemical synthesis (Fmoc), no expression host
# Experimental: Expressed scAb was tested for its ability to interact with the peptide […] (SEQ ID NO: 9) by ELISA using anti-BSA-target peptide scAb. Wells of a 96 well plate were coated with BSA-target peptide or BSA and incubated with either C1-3 scAb (grey bars) or control scAb incubation buffer (clear bars) followed by extensive washing. Bound scAb was detected using the HRP conjugated anti-human Cκ light chain antibody and quantitated as outlined in methods section. Data are the mean and standard deviation of 3 separate determinations. ‘BSA-peptide 2’ is the target peptide.
# (§4) Purified polyclonal phage enriched for binders to peptides were assayed by ELISA using flat bottomed 96-well Immulon-4 microtitre plates (Dynex, Sussex, UK) coated with 2 μg/well protein (peptide-BSA or BSA) in PBS overnight at 4° C. Bound phage were detected by incubation with 100 μl/well horseradish peroxidase (HRP) conjugated anti-M13 antibody (AmershamPharmacia) for 1 h, washing, and incubation with 100 μl/well tetramethylbenzidine dihydrochloride solution (KPL Laboratories, Gaithersburg, Md.). Reactions were stopped with 50 μl/well 1M H2SO4, and the absorbance at 450 nm read using a microtitre plate reader.
# Expressed scAb was tested for its ability to interact with peptide by ELISA essentially as outlined for polyclonal anti-peptide phage-antibody ELISAs. […]
# target peptide-BSA = biological target: T4, target peptide-BSA (Homo sapiens, UniProt P08247); assay: Monoclonal phage-antibody ELISA; format: binding; details: FIG. 3
# T4 construct: host or cells: chemical synthesis (Fmoc), no expression host
# Experimental: C1-phage antibody clone (monoclonal) assayed for binding to the target peptide-BSA as outlined for FIG. 2.
# as §4
# Individual colonies from pan 3 were grown in 96 well plates (Greiner) and phage-antibodies rescued with M13 KO7.
# Specificity of phage supernatants for binding to peptide-BSA and BSA alone was determined by ELISA. The scFv encoding regions of positive clones were subcloned in to the expression vector pIMS147. This is a modification of the IPTG (isopropyl-β-D-thiogalactopyranoside) inducible pUC based vector pIMS100 (Hayhurst A. et al. Protein Expr Purif 1999; 15:336-43). The addition of a hexa-histadine tag permits purification of the expressed scAb by immobilised metal ion chelate affinity chromatography. Vectors were transformed into E. coli TG1 or XL1 blue cells.
# T1 sequence (P08247 whole entry): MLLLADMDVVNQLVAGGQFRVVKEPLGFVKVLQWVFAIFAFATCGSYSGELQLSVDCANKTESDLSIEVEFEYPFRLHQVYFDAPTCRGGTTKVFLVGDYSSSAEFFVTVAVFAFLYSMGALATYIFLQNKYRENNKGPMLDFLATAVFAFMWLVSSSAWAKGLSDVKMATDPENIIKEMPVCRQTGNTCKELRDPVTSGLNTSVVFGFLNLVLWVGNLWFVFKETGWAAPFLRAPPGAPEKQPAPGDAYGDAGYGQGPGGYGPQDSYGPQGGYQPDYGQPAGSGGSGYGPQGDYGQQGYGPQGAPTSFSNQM
# T2 sequence (P07825 whole entry): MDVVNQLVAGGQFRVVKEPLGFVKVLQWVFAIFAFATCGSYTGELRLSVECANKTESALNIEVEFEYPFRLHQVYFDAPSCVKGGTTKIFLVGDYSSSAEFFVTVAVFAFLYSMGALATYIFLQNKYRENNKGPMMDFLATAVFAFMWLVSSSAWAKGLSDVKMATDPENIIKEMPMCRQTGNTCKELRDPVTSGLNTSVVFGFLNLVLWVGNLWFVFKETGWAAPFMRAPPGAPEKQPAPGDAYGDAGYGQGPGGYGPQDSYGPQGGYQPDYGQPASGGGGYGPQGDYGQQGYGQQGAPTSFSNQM
molecule,measurement,setting,value
ATDPENIIKEMPMC (listed as Homo sapiens),effect on FITC-C1-3 association/binding to HSCs,human HSCs [1],did not significantly inhibit
YPFRLHQVYFDAPSC (listed as Homo sapiens) [C1-3 antigen],effect on FITC-C1-3 association/binding to HSCs,human HSCs [1],decreased FITC-C1-3 binding to HSCs in a dose-dependent manner
CC[C@@]1([C@@H]2O[C@@H]([C@H]3O[C@@](O)(CO)[C@H](C)C[C@@H]3C)C[C@@H]2C)CC[C@H]([C@]2(C)CC[C@]3(C[C@H](O)[C@@H](C)[C@@H]([C@@H](C)[C@@H](OC)[C@H](C)C(=O)O)O3)O2)O1 [monensin],effect on FITC-C1-3 association/binding to HSCs,human HSCs [1],did not inhibit the total number of cells stained
same,effect on FITC-C1-3 uptake (nuclear FITC-C1-3 staining),human HSCs [1]; 10 minutes preincubation,reduced uptake
CN(C)CCCN1c2ccccc2Sc2ccc(Cl)cc21 [chlorpromazine],toxicity to HSCs (attachment as measure of viability),HSCs,kill HSCs
"FITC-BSA: FITC labelled bovine serum albumin, specificity control [reference compound]",green fluorescence associated with hepatic stellate cells,[2],displayed cytoplasmic foci of fluorescence
same,green fluorescence associated with human hepatocytes,human hepatocytes,displayed cytoplasmic foci of fluorescence
"C1-3 scAb: human single-chain antibody fragment with human Cκ domain and His tag, specific for synaptophysin peptide …; amino acid sequence SEQ ID NO 8 (protein, human Cκ domain and His tag; C1-3 amino acid sequence) scFv: MAEVQLLESGGGLVQPGGSLRLSCAASGFTFSSYAMSWVRQAPGKGLEWVSTIAASGPSTGYADSVKGRFTISRDNSKNTLYLQMNSLRAEDTAVYYCAKTTAKFDYWGQGTLVTVSSGGGGSGGGGSGGGGSTDIQMTQSPSSLSASVGDRVTITCRASQSISSYLNWYQQKPGKAPKLLIYSASRLQSGVPSRFNGSGSGTDFTLTISSLQPEDFATYYCQQLQRKPTTFGQGTKVEIKRGAAAPSVFIF",fluorescence binding to HepG2 cells,HepG2 cells,not detected
same,green fluorescence in hepatic stellate cell/hepatocyte co-cultures,[3],No significant green fluorescence
same,size of protein bound by scAb in Western analysis,[4],~32 kDa
same,cross-reaction with synaptophysin in rat HSCs,[5],did not cross-react
same,association with HSCs: change of culture medium concentration of scAb,human HSCs [6],reduction in culture medium concentrations
same,fluorescence binding to COS-7 cells,COS-7 cells,not detected
same,green fluorescence associated with hepatic stellate cells,[2],No detectable green fluorescence
same,green fluorescence associated with human hepatocytes,human hepatocytes,no associated green fluorescence
same,scAb bound to peptide-BSA relative to BSA alone,"[7]; ELISA, FIG. 7",approximately 8 times
same,recognition of the peptide in ELISA,[7]; expressed scAb from XL-1 blue E coli,specifically recognised the peptide
"C1: monoclonal phage-antibody clone from pan 3 of Tomlinson I+J libraries, subcloned to give C1-3 scAb (protein) scFv: MAEVQLLESGGGLVQPGGSLRLSCAASGFTFSSYAMSWVRQAPGKGLEWVSTIAASGPSTGYADSVKGRFTISRDNSKNTLYLQMNSLRAEDTAVYYCAKTTAKFDYWGQGTLVTVSSGGGGSGGGGSGGGGSTDIQMTQSPSSLSASVGDRVTITCRASQSISSYLNWYQQKPGKAPKLLIYSASRLQSGVPSRFNGSGSGTDFTLTISSLQPEDFATYYCQQLQRKPTTFGQGTKVEIKRGAAA",binding response in monoclonal phage-antibody ELISA,target peptide-BSA,good binding response

# — patent US7871782B2, “Specific binding members against synaptophysin” (The University Court of the University of Aberdeen, priority 2004, dated 2011)
